Experimental data as given in the DeepSol protein solubility set.

Assay: soluble on expression in E. coli; label from the status in PepcDB or PDB records

| Sequence | soluble on expression in E. coli |
| --- | --- |
| MTKHVAVLLAHGFEEAEAVIFIDIMRRLDIRVDILSCEATTALSTYFETPISADALLSDRLDHHYDAVMMPGGPKGTDSLTANPQVIAFLRRHIAQDKYICALCSSGAKVLAAHHLLAGRTYSTGDKLADKFADGAYLDQDVVVDGKFITAKGLGVSFEFAFTVARHLLSDNLPKVEHQASHIYFKHGSAQT | not soluble |
| MGSDKIHHHHHHMKNDKNLLQHFSREEREFVEKIMDMCQQVEDTYSYRLTHFLHPRQDEIVCKIANYYQLQTFSSRDLVSTEHSRVIIAPTYYELDIKHFELTALHLSYARKFHTLSHSQVLGTFLNQLGIKREYLGDILIDDERLIVFIDQKFGQIALQSITKVARVPVKGKEEEWTTVRLPIGQEWRSKDVLVSSMRLDKLISVAFNLSRATANKLIEAGHVKLDYVLTEQTSKLVEIGQLISVRRYGRVRLNEFLGFSKQGKIKLKLDIVKT | not soluble |
| EDGRILKRFCQCEQRSLEQLMKDPLRPFVPAYYGMVLQDGQTFNQMEDLLADFEGPSIMDCKMGSRTYLEEELVKARERPRPRKDMYEKMVAVDPGAPTPEEHAQGAVTKPRYMQWRETMSSTSTLGFRIEGIKKADGTCNTNFKKTQALEQVTKVLEDFVDGDHVILQKYVACLEELREALEISPFFKTHEVVGSSLLFVHDHTGLAKVWMIDFGKTVALPDHQTLSHRLPWAEGNREDGYLWGLDNMICLLQGLAQS | soluble |
| SNQEKLAKLQAQVRIGGKGTARRKKKVVHRTATADDKKLQSSLKKLAVNNIAGIEEVNMIKDDGTVIHFNNPKVQASLSANTFAITGHAEAKPITEMLPGILSQLGADSLTSLRKLAEQFPRQVLDSKAPKPEDIDEEDDDVPDLVENFDEASKNEAN | soluble |
| VSEIKTLVTFFGGTGDLAKRKLYPSVFNLYKKGYLQKHFAIVGTARQALNDDEFKQLVRDSIKDFTDDQAQAEAFIEHFSYRAHDVTDAASYAVLKEAIEEAADKFDIDGNRIFYMSVAPRFFGTIAKYLKSEGLLADTGYNRLMIEKPFGTSYDTAAELQNDLENAFDDNQLFRIDHYLGKEMVQNIAALRFGNPIFDAAWNKDYIKNVQVTLCEVLGVEERAGYYDTAGALLDMIQNHTMQIVGWLAMEKPESFTDKDIRAAKNAAFNALKIYDEAEVNKYFVRAQYGAGDSADFKPYLEELDVPADSKNNTFIAGELQFDLPRWEGVPFYVRSGKRLAAKQTRVDIVFKAGTFNFGSEQEAQEAVLSIIIDPKGAIELKLNAKSVEDAFNTRTIDLGWTVSDEDKKNTPEPYERMIHDTMNGDGSNFADWNGVSIAWKFVDAISAVYTADKAPLETYKSGSMGPEASDKLLAANGDAWVFKG | soluble |
| MGSDKIHHHHHHSCGNKDKGTTVPEGNPSDREAMLKNVADNIVIPANAKFEIKLDNMIAKSDVFRNNPTVTTLSEYRIAWAEAYIEWQKIGIFDFGPAADVALNSYMNVYPANVSNINANILSGNANLEVFESYSAQGFPAIDYLINGSADTDDDIVALYVTGEDADKRKAYLLRLTNQMHAKFEAVNAAWKGDYRNTFVSSTGTGLNASTSVMVNGIVFYYERFIRSGKFGIPSGAMTGTPLNASVEAYYKKDIGKILAQTAQQAFVDYFNGKGVTTGIEGPSLKTYLNALDAKDATTKQPLSEIINNQFTVVDSKLNVLSDNLSNEVLTNKAAMVAVYNEMQKAVRMLKVDMTSALSVTITYTDNDGD | not soluble |
| MNGDVQSVIRGYLERAQVAKTMSDAGRWNEAGDLLRQLMTDVKSCKISASNRDEHDARNTFLRALEANLKLVQQNVRDEDDLHEAMTRQSGSPEPPADPDVWSKPSPPLPSSSKFGATKKGVGAAGPRPREISKSTSSMSTNPADVKPANPTQGILPQNSAGDSFDASAYDAYIVQAVRGTMATNTENTMSLDDIIGMHDVKQVLHEAVTLPLLVPEFFQGLRSPWKAMVLAGPPGTGKTLIARAIASESSSTFFTVSSTDLSSKWRGDSEKIVRLLFELARFYAPSIIFIDEIDTLGGQRGNSGEHEASRRVKSEFLVQMDGSQNKFDSRRVFVLAATNIPWELDEALRRRFEKRIFIPLPDIDARKKLIEKSMEGTPKSDEINYDDLAARTEGFSGADVVSLCRTAAINVLRRYFRYDTKSLRGGELTAAMESLKAELVRNIDFEAALQAVSPSAGPDTMLKCKEWCDSFGAM | not soluble |
| GMKEIRIILMGTGNVGLNVLRIIDASNRRRSAFSIKVVGVSDSRSYASGRNLDISSIISNKEKTGRISDRAFSGPEDLMGEAADLLVDCTPASRDGVREYSLYRMAFESGMNVVTANKSGLANKWHDIMDSANQNSKYIRYEATVAGGVPLFSVLDYSILPSKVKRFRGIVSSTINYVIRNMANGRSLRDVVDDAIKKGIAESNPQDDLNGLDAARKSVILVNHIFGTEYTLNDVEYSGVDERSYNANDRLVTEVYVDDRRPVAVSRIISLNKDDFLMSIGMDGLGYQIETDSNGTVNVSDIYDGPYETAGAVVNDILLLSKVQK | soluble |
| MDVNTTYTKELSIIVPIYNEERELPELVRRLSAAAASITEDYELIFVNDGSRDGSMELLRSLCKGDDRFFYINLSRNFGHQIAVSAGLDHVRGKATVIIDGDLQDPPELIPELYAKYREGYEVVYAQRKHREGETWFKKATAKGFYRTMRKITSIDMPLDTGDFRLIDRKIVQCLREMPEQNKFLRGQIAWMGFRQTGVQFDRDERKYGQTNYPLRKMLALAIDGITGFSSRPLEWVAQ | not soluble |
| MTFFPEIDIQKTKSNAKRKLREYPRWRRIANDVDTQKVTATYSFEPRQSHGVPSKPVERLALNRVSAEQELDAIEQAVSMILEPERRRILYDKYLAPYKKADKVIYTELCMSESFYYDTLDIALLAFAELYREGVLLVEEGVFS | not soluble |
| SGEEANDDKKPTTKFELERETELRFEVEASQSVQLELLTGMAEIFGTELTRNKKFTFDAGAKVAVFTWHGCSVQLSGRTEVAYVSKDTPMLLYLNTHTALEQMRRQAEKEEERGPRVMVVGPTDVGKSTVCRLLLNYAVRLGRRPTYVELDVGQGSVSIPGTMGALYIERPADVEEGFSIQAPLVYHFGSTTPGTNIKLYNKITSRLADVFNQRCEVNRRASVSGCVINTCGWVKGSGYQALVHAASAFEVDVVVVLDQERLYNELKRDLPHFVRTVLLPKSGGVVERSKDFRRECRDERIREYFYGFRGCFYPHAFNVKFSDVKIYKVGAPTIPDSCLPLGMSQEDNQLKLVPVTPGRDMVHHLLSVSTAEGTEENLSETSVAGFIVVTSVDLEHQVFTVLSPAPRPLPKNFLLIMDIRFMDLK | not soluble |
| MSQLTEFISCIPVVNEEQNEEDERGLCKIQIEDGAMLETLDENSLSGLRIEKMLVSEGTGIFSKSSFGINDLRIFTGENIDEESKKYVWYELLKMLTGHKVYIASLDEKVVFTKWTCRMQDDEVWKVVMELESSAIIRKIAELTLHPVKKGEIDLFEMADKLYKDICCVNDSYRNIKESDSSNRNRVEQLARERELLDKLLETRDERTRAMMVTLLNEKKKKIRELHEILRQNNIKLSDDDVLDSA | soluble |
| MGSDKIHHHHHHMNFTQNEKLKQLSERSIVIGVDIASELHYARAFDWRGVELGKVFKFENSAEGFKNLYAWIERIKRQAQKDSIVVGAEPTGHYWFGLASYLKEQNIKLVLVNPFHVKRSKELDDNHPSKTDAKDPKTIAKLVIEGRYNEPYIPEGLYAELRIAVTCRVRIQKEMNSIKNRIQRWLKIYFPEHETVFGKFDATSSMLVLQVAPLPRDIERLGVEGINRIWRDNKLRAVGMKRAKSLYEAAQKSIGCTEGESCSRMEIQLLLQDYHTKTAQYQAVTETIDGLCRQIPEVAKLLEIKGVGLVTVAGFLSEVGDIKRFNSPKQIQKLAGLALRESSSGKHKGQTTISKRGRARLRAILFQAVMPLVAKNAEFAEIHNYYTTRTQNPLKKKQSLIALSCKLIRVFYAILTKGTDYDPKKLIMDIHRPVEYLAA | not soluble |
| MSLYMTIGRIFDLSVGKYPNKEALVEPEKNIRWTYKQWDEQINKTAHALLEEGVRKGDTVSVYLYNCHEFVNVYLACAKIGAIFNPINFRLKAKEVSYILQDASSKVVVFEKAVESTVAIIERDFPNTSFWSIENDKPSYASSYHEKVNEASSEKVNIEIDEMDYCSMLYTSGTTGHPKGVLHRHREMAEHSMICTYFLKYNRDSVGLVVAPLYHCGELNAGIIPRIQVGGKNVILHHFDTETVLHTIQEEKITTFFAAPTMWNMLLQKDLAQYDLTSMKIGIYGGAAMAPALVKECKERLYIDLVQIYGMTEMGPVVAFLVEEDQITKAGSAGTPCFSHEVRIVKPNEDAPAEPDDVLPPYEVGEIILRGPTMMAGYHNREEANKKSMYKGWYHSGDLGYFDKDGYLFVADRVDDMVISGGVNIYPREIEDFLHSHPGILDVAVLGEPDELWGERVVAVIVKKDETITEADLETYCKESDELADYKRPRHYLFVDELPRNASGKLQKFVLRESLKGAKEGHHHHHH | soluble |
| MQYVKIKDAIVEQIDAGMLMPRQKLPAERKLAESFDTTRVTLREALSLLEAEGKIYREDRRGWFISPAPLRYDPTQTLNFTNMALAQNRQPKTELVSAKAVIANKQATRLLKLKPFSDVYRVDRVRYLDNRPVVYVTNYIRPELFPNLLDFDLSQSLTDLYREHYATQYQTIHYRISTSSLLGEMAQALRATSGTPAMVVERVNYNQKGELIDCDIEYWRHDAITIESIAELKR | not soluble |
| MGSDKIHHHHHHMKKVAIVILNWNGRKLMEEFLPSVVSNSPEWAEVIVADNGSTDDSIEMLKAKFPTVGIISFNQNYGFAEGYNQALKRLDHEYCVLLNSDVEVTPNWLDAPIATLDSDPSIACVQPKIRAQRNKEYFEYAGAAGGYIDKYGYPFCRGRILHIVEKDEGQYDTPAYILWATGACLFVRTATYKEVGGLDAGFFAHQEEVDMCWRLRSRGYRLVCVPQSIVYHVGGATLNAESPRKTFLNFRNSLLMLYKNSREADLKHVMRIRFWLDYIAAAKFLMEGHIQNAKAVYEARKAYHQLKPEYAPKRKENLEKSTLSTIPELMRDSLILAFYLKGKRTFKAIKDRR | not soluble |
| EAVIVVDERDVVIDLNPQAKAIIGTPGAAWIGRPLEDVLPGLIELRDSPTDDIPDRAEITVPVNGEERAYEVRQTPLHRGYGTVTGQLITLTD | not soluble |
| MSLDTSAPQKYRRILLKVSGEVLMGDTPYGIDTNTVQSVAEDVAEIVKSGVELCLVIGGGNIFRGMAGAAKGMERSSADYMGMLATVMNALAMQDALERIGVETRVQSAIPMATVCEPYIRRRAQRHLEKGRVVIFAAGTGNPFFTTDTAAALRAAEMQCDALFKGTSVDGVYTADPKKDPTAQRYDRLSYMDVLAKDLRVMDASAVALMRDSNIPIVVFSIKGRGNLLTVLRGEGTHTVVAEDEGHHHHHH | soluble |
| MGSDKIHHHHHHMKCSKCSAEAIYYAKYNGLYLCRDHFNEMIEGRVKKEIRKQVEFHGDDVTISVALSGGKDSSVTLFLLHKILGNRKNMKIKAFTVDEGIDGYRPSGLESAKRLCTSLGIDHETISFYDSYGLTLDSIVKTNPVKIPCAYCGPLRRKLINEMADKQDADYVALGLNLDDYSQSILMNVAKGDFDRFIRMSPQTDRKVGLVRRIAPLRTILEKEVVLYAVTNDIPFDSSWCPYYSRAQRNVFREVVNKLSEENPSTKFAILKFFDRVRENITTGHEEVKLKRCKICGAPTERDVCTACSSLQEVNEMMAEH | not soluble |
| MSLIPVVLSGGAGTRLWPVSREGQPKPFMRLPDGQTLLGKTYRRAAGLLAGHGEIVTVTNREHYFQSKDQFHAARLGRHRGHFILEPTGRNTAPAIAVAALGLQAEHGDAAVLVVMPADHLIRNEEAFREAVGHAARLAVAGHLVTFGVVPDAAETGFGYIELGDRLDEQGAAKVRRFVEKPDEETRRRYVESGGFLWNSGMFCFTASTLVDELAQHAPALLEQARACLAASAAVKMADGIQHELAGEGFAALPDISIDYALMERSARVAVVPAAFDWSDIGSWGAMSALLDADAEGNRGSGDTLFVDTRNTFVQSDGRLVATVGVDDLVVVDTSDALLIARADRVQEVRRVVQRLKDEREGHHHHHH | soluble |
